Target: T1, recombinant secreted soluble PSCA with a C-terminal 6xHis and MYC tag (human) (UniProt O43653)
T1 sequence (looked up): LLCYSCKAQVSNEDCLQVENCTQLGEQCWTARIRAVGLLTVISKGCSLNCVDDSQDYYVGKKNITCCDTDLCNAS
Assay: SPR (BIAcore), recombinant His/MYC-tagged PSCA immobilized at low density (30 RU), mAb in solution

Kd: 1 nM | kon: 168000 M⁻¹ s⁻¹
B1: anti-PSCA monoclonal antibody 1G8 (ATCC No. HB-12612) (antibody, from another filing, mouse IgG1, V domains shown)
VH: EVQLQQSGAELVRSGASVKLSCTASGFNIKDYYIHWVNQRPDQGLEWIGWIDPENGDTEFVPKFQGKATMTADIFSNTAYLHLSSLTSEDTAVYYCKTGGFWGQGTLVTVSA
VL: QVVLTQSPAIMSASPGEKVTMACSASSSVRFIHWYQQKSGTSPKRWIYDTSKLASGVPTRFSGSGSGTSYSLTISTMEAEDAATYYCQQWSSSPFTFGSGTKLIIK

Reference: patent US20040018571A1
